{
  "source": "patent US20080241867",
  "target": "hybrid GFP construct containing the protease cleavage sequence SVPSGCG (SEQ ID NO:21) followed by histidine residues",
  "data": [
    {"protein": "Papain (protein) IPEYVDWRQKGAVTPVKNQGSCGSCWAFSAVVTIEGIIKIRTGNLNEYSEQELLDCDRRSYGCNGGYPWSALQLVAQYGIHYRNTYPYEGVQRYCRSREKGPYAAKTDGVRQVQPYNEGALLYSIANQPVSVVLEAAGKDFQLYRGGIFVGPCGNKVDHAVAAVGYGPNYILIKNSWGTGWGENGYIRIKRGTGNSYGVCGLYTSSFYPVKN", "values": [
      {"measurement": "% GFP Released (60 minutes, 37° C.)", "result": 97, "unit": "%"},
      {"measurement": "Micrograms of GFP Released by Protease (overnight, IMAC beads)", "result": 244, "unit": "µg"},
      {"measurement": "averaged GFP signal (instrument signal times dilution factor, four readings)", "result": "papain yielded an averaged (over four readings) GFP signal of 282,000"},
      {"measurement": "fluorescence units of eluant diluted 20-fold", "result": "fluorescence units of 400, 400, and 390, respectively"},
      {"measurement": "µg GFP Released by Protease (60 minutes, 37° C.)", "result": 109, "unit": "µg"}
    ]},
    {"protein": "Proteinase K (protein) AAQTNAPWGLARISSTSPGTSTYYYDESAGQGSCVYVIDTGIEASHPEFEGRAQMVKTYYYSSRDGNGHGTHCAGTVGSRTYGVAKKTQLFGVKVLDDNGSGQYSTIIAGMDFVASDKNNRNCPKGVVASLSLGGGYSSSVNSAAARLQSSGVMVAVAAGNNNADARNYSPASEPSVCTVGASDRYDRRSSFSNYGSVLDIFGPGTSILSTWIGGSTRSISGTSMATPHVAGLAAYLMTLGKTTAASACRYIADTANKGDLSNIPFGTVNLLAYNNYQA", "values": [
      {"measurement": "Micrograms of GFP Released by Protease (overnight, IMAC beads)", "result": 94, "unit": "µg"}
    ]},
    {"protein": "Purified Bromelain (protein) AVPQSIDWRDYGAVTSVKNQNPCGACWAFAAIATVESIYKIKKGILEPLSEQQVLDCAKGYGCKGGWEFRAFEFIISNKGVASGAIYPYKAAKGTCKTDGVPNSAYITGYARVPRNNESSMMYAVSKQPITVAVDANANFQYYKSGVFNGPCGTSLNHAVTAIGYGQDSIIYPKKWGAKWGEAGYIRMARDVSSSSGICGIAIDPLYPTLEE", "values": [
      {"measurement": "% GFP Released (60 minutes, 37° C.)", "result": 98, "unit": "%"},
      {"measurement": "Micrograms of GFP Released by Protease (overnight, IMAC beads)", "result": 35, "unit": "µg"},
      {"measurement": "averaged GFP signal (instrument signal times dilution factor, four readings)", "result": "bromelain yielded a averaged (over four readings) GFP signal of 281,500"},
      {"measurement": "fluorescence units of eluant diluted 20-fold", "result": "fluorescence units of 400, 400, and 390, respectively"},
      {"measurement": "µg GFP Released by Protease (60 minutes, 37° C.)", "result": 109, "unit": "µg"}
    ]}
  ]
}
